# Measurements from IntAct's records for PubMed 23503662.
# B1: Cryptochrome-2 (Mus musculus), Q9R194 (parent)
# chain: MAAAAVVAATVPAQSMGADGASSVHWFRKGLRLHDNPALLAAVRGARCVRCVYILDPWFAASSSVGINRWRFLLQSLEDLDTSLRKLNSRLFVVRGQPADVFPRLFKEWGVTRLTFEYDSEPFGKERDAAIMKMAKEAGVEVVTENSHTLYDLDRIIELNGQKPPLTYKRFQALISRMELPKKPAVAVSSQQMESCRAEIQENHDDTYGVPSLEELGFPTEGLGPAVWQGGETEALARLDKHLERKAWVANYERPRMNANSLLASPTGLSPYLRFGCLSCRLFYYRLWDLYKKVKRNSTPPLSLFGQLLWREFFYTAATNNPRFDRMEGNPICIQIPWDRNPEALAKWAEGKTGFPWIDAIMTQLRQEGWIHHLARHAVACFLTRGDLWVSWESGVRVFDELLLDADFSVNAGSWMWLSCSAFFQQFFHCYCPVGFGRRTDPSGDYIRRYLPKLKGFPSRYIYEPWNAPESVQKAAKCIIGVDYPRPIVNHAETSRLNIERMKQIYQQLSRYRGLCLLASVPSCVEDLSHPVAEPGSSQAGSISNTGPRALSSGPASPKRKLEAAEEPPGEELTKRARVTEMPTQEPASKDS
# B2: F-box/LRR-repeat protein 3 (Homo sapiens), Q9UKT7 (parent)
# chain: MKRGGRDSDRNSSEEGTAEKSKKLRTTNEHSQTCDWGNLLQDIILQVFKYLPLLDRAHASQVCRNWNQVFHMPDLWRCFEFELNQPATSYLKATHPELIKQIIKRHSNHLQYVSFKVDSSKESAEAACDILSQLVNCSLKTLGLISTARPSFMDLPKSHFISALTVVFVNSKSLSSLKIDDTPVDDPSLKVLVANNSDTLKLLKMSSCPHVSPAGILCVADQCHGLRELALNYHLLSDELLLALSSEKHVRLEHLRIDVVSENPGQTHFHTIQKSSWDAFIRHSPKVNLVMYFFLYEEEFDPFFRYEIPATHLYFGRSVSKDVLGRVGMTCPRLVELVVCANGLRPLDEELIRIAERCKNLSAIGLGECEVSCSAFVEFVKMCGGRLSQLSIMEEVLIPDQKYSLEQIHWEVSKHLGRVWFPDMMPTW
# partner: B1 chain
# Variants of: B1
# Conditions: with per1_human PER1, O15534
# Sequence of per1_human PER1, O15534 (O15534 whole entry): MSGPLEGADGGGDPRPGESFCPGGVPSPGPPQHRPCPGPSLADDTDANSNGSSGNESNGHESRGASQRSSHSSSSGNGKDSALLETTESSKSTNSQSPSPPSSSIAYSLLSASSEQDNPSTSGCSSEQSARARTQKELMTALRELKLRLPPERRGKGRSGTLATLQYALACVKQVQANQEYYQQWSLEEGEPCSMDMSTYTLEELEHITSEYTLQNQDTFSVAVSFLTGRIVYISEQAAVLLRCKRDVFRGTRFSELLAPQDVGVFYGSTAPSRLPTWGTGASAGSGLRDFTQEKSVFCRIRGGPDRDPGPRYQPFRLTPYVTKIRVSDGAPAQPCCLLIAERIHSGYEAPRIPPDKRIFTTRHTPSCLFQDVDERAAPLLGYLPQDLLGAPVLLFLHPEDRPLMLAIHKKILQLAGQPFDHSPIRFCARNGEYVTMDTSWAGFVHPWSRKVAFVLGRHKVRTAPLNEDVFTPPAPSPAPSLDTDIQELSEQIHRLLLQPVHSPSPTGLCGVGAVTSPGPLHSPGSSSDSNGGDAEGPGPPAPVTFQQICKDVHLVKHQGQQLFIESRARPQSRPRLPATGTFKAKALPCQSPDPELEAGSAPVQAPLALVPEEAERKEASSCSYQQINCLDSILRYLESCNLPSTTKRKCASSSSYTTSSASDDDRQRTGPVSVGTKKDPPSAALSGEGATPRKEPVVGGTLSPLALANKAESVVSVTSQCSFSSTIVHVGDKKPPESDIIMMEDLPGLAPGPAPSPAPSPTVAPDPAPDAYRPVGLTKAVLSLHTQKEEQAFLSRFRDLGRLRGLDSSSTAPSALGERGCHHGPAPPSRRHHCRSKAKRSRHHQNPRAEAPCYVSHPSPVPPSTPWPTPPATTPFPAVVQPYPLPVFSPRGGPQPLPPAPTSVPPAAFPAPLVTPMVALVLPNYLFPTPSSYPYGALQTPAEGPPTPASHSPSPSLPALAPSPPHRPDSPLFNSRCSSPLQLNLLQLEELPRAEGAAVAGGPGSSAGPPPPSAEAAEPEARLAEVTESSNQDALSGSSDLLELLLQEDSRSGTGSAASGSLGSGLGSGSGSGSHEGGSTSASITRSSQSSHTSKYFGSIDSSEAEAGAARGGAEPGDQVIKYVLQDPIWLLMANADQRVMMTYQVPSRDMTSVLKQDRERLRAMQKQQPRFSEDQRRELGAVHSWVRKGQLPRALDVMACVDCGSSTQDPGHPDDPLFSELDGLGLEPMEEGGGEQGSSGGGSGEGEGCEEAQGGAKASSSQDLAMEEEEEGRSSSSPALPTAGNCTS
row,effect of a mutation on the interaction,Variant
1,disrupting interaction strength,D339R

# Variants of: B2
# Conditions: with cry2_mouse Cry2, Q9R194
row,Variant,effect of a mutation on the interaction
1,Y292A,decreasing interaction strength
2,E336A,disrupting interaction strength
3,Y314A,disrupting interaction strength

# The next lines start with the values.
row,effect of a mutation on the interaction,Variant
1,decreasing interaction strength,W428A
2,disrupting interaction strength,P426A
